Laboratory results published in patent US20090023895A1.

Biological target: HLA-A2 molecule (a product of the HLA-A*0201 gene) (human), A*02:0

Binder	-log Kd (Binding Experiment Data)
WMACHSAAF (modifications not checked) [SEQ ID NO: 30 peptide]	5.79 -log Kd
YLEEHPSAG (modifications not checked) [SEQ ID NO: 21 peptide]	5.08 -log Kd
YLEENPSAG (modifications not checked) [SEQ ID NO: 26 peptide]	4.9 -log Kd
IFLARSALI (modifications not checked) [SEQ ID NO: 35 peptide]	5.94 -log Kd
